Source: paper doi:10.1101/2021.08.16.456468

Target: DnaD^7A, purified (B. subtilis) (UniProt P39787)
Assay: SEC

- stoichiometry N: 4
Substance: DnaD^7A, purified (from UniProt P39787 1-232) (natural protein)
